Assays:
human HER3 [1] = target: T1, human HER3 (Homo sapiens, UniProt P21860); assay: BLI binding to HER3 in absence of NRG1 ('closed' conformation)
Description: (§1) In further experiments, anti-HER3 antibodies were analysed in order to determine the affinity of binding to human HER3 in the context of a human HER3:human NRG1 complex (that is, HER3 provided in the ligand-bound, ‘open’ conformation), as compared to the affinity of binding to human HER3 in the absence of NRG1 complex (that is, HER3 provided in the unbound, ‘closed’ conformation).
(§2) Binding of anti-HER3 antibodies to human HER3 was evaluated by BLI. Briefly, anti-Human IgG Capture (AHC) sensors (ForteBio) were loaded with anti-HER3 IgG antibodies (25 nM). Kinetic measurements were performed in absence or presence of NRG1. NRG1 was used at 1:1 molar ratio with HER3 wherein the complex was allowed to form at RT for 2 h. His-tagged human HER3 or HER3-NRG1 complexes were loaded to antibody coated AHC sensors at different concentrations for 120 s, followed by a 120 s dissociation time. All measurements were performed at 25° C. with agitation at 1000 rpm. Sensorgrams were referenced for buffer effects and then analyzed using the Octet QK384-software (ForteBio). Kinetic responses were globally fitted using a one-site binding model to obtain values for association (Kon), dissociation (Koff) rate constants and the equilibrium dissociation constant (KD).

human HER3 [2] = target: T1, human HER3; assay: Global affinity study, Bio-Layer Interferometry (Octet QK384); type: binding; conditions: BLI, His-tagged human HER3, IgG1 format, 25° C.; read-out: Affinity (KD)
Description: The anti-HER3 antibody clones in IgG1 format were analysed for binding affinity to human HER3. Bio-Layer Interferometry (BLI) experiments were performed using the Octet QK384 system (ForteBio). anti-Human IgG Capture (AHC) Octet sensor tips (Pall ForteBio, USA) were used to anti-HER3 antibodies (25 nM). All measurements were performed at 25° C. with agitation at 1000 rpm. Kinetic measurements for antigen binding were performed by loading His-tagged human HER3 antigens at different concentrations for 120 s, followed by a 120 s dissociation time by transferring the biosensors into assay buffer containing wells. Sensograms were referenced for buffer effects and then fitted using the Octet QK384 user software (Pall ForteBio, USA). Kinetic responses were subjected to a global fitting using a one site binding model to obtain values for association (Kon), dissociation (Koff) rate constants and the equilibrium dissociation constant (KD). Only curves that could be reliably fitted with the software (R^2>0.90) were included in the analysis.
Bio-Layer Interferometry (BLI) experiments were performed using the Octet QK384 system (ForteBio). […] Binding was detected using titrated HIS-tagged human HER3 in steps of baseline (60 s), loading (120 s), baseline2 (60 s), association (120 s), dissociation (FcA 120 s, FcB 600 s) and regeneration (15 s). Sensorgrams were analysed as described in Example 3.3. […]

[3] = target: human HER3:human NRG1 complex (Homo sapiens, UniProt P21860); assay: BLI binding to HER3-NRG1 complex ('open' conformation); conditions: presence of NRG1 (1:1 molar ratio)
Description: as §1, §2

human HER3 [4] = target: T1, human HER3; assay: Immunohistochemistry on frozen human tissue arrays; set-up: Arrays of commercially-available frozen tissue sections were obtained; from tissue; host or cells: frozen human normal and malignant tissue section arrays; conditions: mIgG2a format
Description: Anti-HER3 antibody 10D1F in mIgG2a format was evaluated for its ability to be used in immunohistochemistry for the detection of human HER3 protein.
Processing of sections was performed using Bond reagents (Leica Biosystems). Arrays of commercially-available frozen tissue sections were obtained. Slides were dried in a desiccator for 10 min and then subjected to the following treatments, with water washes and/or TBS-T rinses between steps: (i) fixation by treatment with 100% acetone for 10 min at room temperature; (ii) endogenous peroxidase blocking by treatment with 3% (v/v) H2O2 for 15 min at room temperature; (iii) blocking by treatment with 10% goat serum for 30 min at room temperature, (iv) incubation with 10D1 F-mIgG2a at 1:250 dilution of a 6.2 mg/ml solution overnight at 4° C., (v) incubation with HRP-polymer conjugated goat anti-mouse antibody for 30 min at room temperature, and (vi) development with Bond Mixed DAB Refine for 5 min at room temperature, followed by rinsing with deionised water and 1× Bond Wash to stop the reaction.
Slides were then dehydrated, mounted in synthetic mounting media and scanned with high resolution.

mouse HER3 = target: T2, mouse HER3 (Mus musculus, UniProt Q61526); assay: ELISA cross-reactivity, mouse HER3; type: binding
T2 construct: purchased Sino Biological Inc., China
Description: (§3) ELISAs were used to determine the binding specificity of the antibodies. The antibodies were analysed for binding to human HER3 polypeptide, as well as respective mouse, rat and monkey homologues of HER3 (Sino Biological Inc., China). The antibodies were also analysed for their ability to bind to human EGFR and human HER2 (Sino Biological Inc., China).
(§4) ELISAs were carried out according to standard protocols. Briefly, 96-well plates (Nunc, Denmark) were coated with 0.1 μg/ml of target polypeptide in phosphate-buffered saline (PBS) for 16 h at 4° C. After blocking for 1 h with 1% BSA in Tris buffer saline (TBS) at room temperature, the anti-HER3 antibody was serially diluted with the highest concentration being 10 μg/ml, and added to the plate. Post 1 h incubation at room temperature, plates were washed three times with TBS containing 0.05% Tween 20 (TBS-T) and were then incubated with a HRP-conjugated anti-His antibody (Life Technologies, Inc., USA) for 1 h at room temperature. After washing, plates were developed with colorimetric detection substrate 3,3′,5,5′-tetramethylbenzidine (Turbo-TMB; Pierce, USA) for 10 min. The reaction was stopped with 2M H2SO4, and OD was measured at 450 nm. […]

cynomolgus macaque HER3 = assay: ELISA cross-reactivity, cynomolgus macaque HER3; type: binding
Description: as §3, §4

human HER2 = target: T3, human HER2 (Homo sapiens, UniProt P04626); assay: ELISA specificity, human HER2; type: binding; conditions: antibody up to 10 μg/ml
T3 construct: purchased Sino Biological Inc., China
Description: as §3
(§5) ELISAs were carried out according to standard protocols. Briefly, 96-well plates (Nunc, Denmark) were coated with 0.1 μg/ml of target polypeptide in phosphate-buffered saline (PBS) for 16 h at 4° C. After blocking for 1 h with 1% BSA in Tris buffer saline (TBS) at room temperature, the anti-HER3 antibody was serially diluted with the highest concentration being 10 μg/ml, and added to the plate. Post 1 h incubation at room temperature, plates were washed three times with TBS containing 0.05% Tween 20 (TBS-T) and were then incubated with a HRP-conjugated anti-His antibody (Life Technologies, Inc., USA) for 1 h at room temperature. […] The reaction was stopped with 2M H2SO4, and OD was measured at 450 nm.
(§6) The antibodies were analysed for their ability to bind to human HER3 polypeptide as well as human HER1 (EGFR) and human HER2 (Sino Biological Inc., China). […]
(§7) ELISAs were carried out according to standard protocols. […] The reaction was stopped with 2M H2SO4, and OD was measured at 450 nm.

[5] = test system: A549 cell-line derived mouse model of lung adenocarcinoma; assay: A549 cell-line derived xenograft model; type: in vivo; conditions: A549, NPG mice, IP weekly 500 μg, 4 doses
rat HER3 = target: T4, rat HER3 (Rattus norvegicus, UniProt Q62799); assay: ELISA cross-reactivity, rat HER3; type: binding
T4 construct: purchased Sino Biological Inc., China
Description: as §3, §4

human EGFR = target: T5, human EGFR (Homo sapiens, UniProt P00533); assay: ELISA specificity, human EGFR; type: binding; conditions: antibody up to 10 μg/ml
T5 construct: purchased Sino Biological Inc., China
Description: as §3, §5, §6, §7

[6] = clinical, literature, cited from earlier work

T4 sequence (Q62799 20-1339): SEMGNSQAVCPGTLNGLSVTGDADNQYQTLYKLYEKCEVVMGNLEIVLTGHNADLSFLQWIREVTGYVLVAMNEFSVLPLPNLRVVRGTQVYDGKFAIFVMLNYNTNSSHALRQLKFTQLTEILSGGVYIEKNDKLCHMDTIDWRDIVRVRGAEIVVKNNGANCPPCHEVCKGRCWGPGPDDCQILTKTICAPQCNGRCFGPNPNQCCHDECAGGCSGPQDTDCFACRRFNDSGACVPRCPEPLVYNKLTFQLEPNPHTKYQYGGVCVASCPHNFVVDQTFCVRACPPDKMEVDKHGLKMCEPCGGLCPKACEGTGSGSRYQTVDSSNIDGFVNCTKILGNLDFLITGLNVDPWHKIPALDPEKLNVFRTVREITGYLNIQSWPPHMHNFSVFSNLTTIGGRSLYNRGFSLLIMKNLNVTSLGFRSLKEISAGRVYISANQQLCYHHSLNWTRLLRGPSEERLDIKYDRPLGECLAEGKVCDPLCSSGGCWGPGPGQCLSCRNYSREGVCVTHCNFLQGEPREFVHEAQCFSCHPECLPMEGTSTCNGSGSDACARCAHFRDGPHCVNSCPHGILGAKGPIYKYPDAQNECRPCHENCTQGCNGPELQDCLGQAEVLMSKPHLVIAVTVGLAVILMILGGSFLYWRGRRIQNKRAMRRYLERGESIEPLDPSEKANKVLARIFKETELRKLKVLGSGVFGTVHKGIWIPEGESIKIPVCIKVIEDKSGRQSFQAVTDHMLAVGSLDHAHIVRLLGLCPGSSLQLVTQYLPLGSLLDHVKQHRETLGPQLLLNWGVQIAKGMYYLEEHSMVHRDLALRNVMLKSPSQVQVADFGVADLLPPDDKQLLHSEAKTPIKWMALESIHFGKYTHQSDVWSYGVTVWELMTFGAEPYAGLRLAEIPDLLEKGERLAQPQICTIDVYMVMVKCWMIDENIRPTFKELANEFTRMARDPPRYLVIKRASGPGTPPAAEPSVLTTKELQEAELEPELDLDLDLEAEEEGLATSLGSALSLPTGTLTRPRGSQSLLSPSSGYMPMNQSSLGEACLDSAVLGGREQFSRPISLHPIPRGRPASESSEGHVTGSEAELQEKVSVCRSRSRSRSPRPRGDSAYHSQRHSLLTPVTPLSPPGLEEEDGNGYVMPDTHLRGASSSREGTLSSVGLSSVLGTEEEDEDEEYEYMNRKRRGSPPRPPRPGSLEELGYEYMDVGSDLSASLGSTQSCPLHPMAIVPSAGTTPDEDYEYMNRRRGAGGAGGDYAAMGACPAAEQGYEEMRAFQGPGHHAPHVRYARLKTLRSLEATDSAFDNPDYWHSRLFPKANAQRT
T2 sequence (Q61526 20-1339): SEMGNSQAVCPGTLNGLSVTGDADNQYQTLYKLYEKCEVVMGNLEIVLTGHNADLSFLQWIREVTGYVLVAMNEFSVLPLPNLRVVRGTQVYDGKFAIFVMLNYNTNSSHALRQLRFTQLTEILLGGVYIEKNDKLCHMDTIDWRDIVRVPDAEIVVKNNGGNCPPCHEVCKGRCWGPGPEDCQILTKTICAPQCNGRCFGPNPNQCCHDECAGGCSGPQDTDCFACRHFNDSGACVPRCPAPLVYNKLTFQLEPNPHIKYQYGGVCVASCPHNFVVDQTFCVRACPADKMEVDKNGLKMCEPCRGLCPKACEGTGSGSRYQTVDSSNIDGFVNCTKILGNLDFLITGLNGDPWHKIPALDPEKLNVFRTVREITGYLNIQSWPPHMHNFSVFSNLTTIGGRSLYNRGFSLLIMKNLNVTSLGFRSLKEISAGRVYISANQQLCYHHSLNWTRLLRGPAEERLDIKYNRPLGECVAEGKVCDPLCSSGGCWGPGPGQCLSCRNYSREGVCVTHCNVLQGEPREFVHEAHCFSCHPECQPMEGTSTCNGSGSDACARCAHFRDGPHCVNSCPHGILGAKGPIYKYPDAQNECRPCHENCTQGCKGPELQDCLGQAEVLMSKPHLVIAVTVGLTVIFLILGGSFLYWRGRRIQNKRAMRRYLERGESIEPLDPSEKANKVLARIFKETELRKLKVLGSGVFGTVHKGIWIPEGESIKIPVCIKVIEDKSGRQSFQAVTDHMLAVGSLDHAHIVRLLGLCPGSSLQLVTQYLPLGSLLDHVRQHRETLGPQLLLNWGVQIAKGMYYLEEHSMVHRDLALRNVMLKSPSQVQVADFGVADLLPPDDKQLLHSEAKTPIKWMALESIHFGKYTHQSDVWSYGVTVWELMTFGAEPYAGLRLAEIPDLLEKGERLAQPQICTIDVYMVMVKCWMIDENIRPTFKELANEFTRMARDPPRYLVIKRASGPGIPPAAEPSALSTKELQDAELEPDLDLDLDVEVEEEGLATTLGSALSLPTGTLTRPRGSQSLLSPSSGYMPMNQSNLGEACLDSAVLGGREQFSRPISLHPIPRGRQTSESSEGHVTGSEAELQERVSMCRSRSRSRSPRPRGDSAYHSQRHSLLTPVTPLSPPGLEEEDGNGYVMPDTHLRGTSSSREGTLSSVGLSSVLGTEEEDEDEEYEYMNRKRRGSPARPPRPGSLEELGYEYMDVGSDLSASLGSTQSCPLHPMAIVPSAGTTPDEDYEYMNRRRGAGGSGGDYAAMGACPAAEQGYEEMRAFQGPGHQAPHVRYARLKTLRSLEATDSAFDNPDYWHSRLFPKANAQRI

B1: 10D1_c89: clone 10D1F comprises VH of SEQ ID NO:36 and VL of SEQ ID NO:83 (antibody, V domains shown)
VH: QVQLQESGPGLVKPSQTLSLTCTVSGYSITSGYSWHWIRQHPGKGLEWIGSIRYSGGTDYNPSLKSLVTISADTSKNQFSLKLSSVTAADTAVYYCARMTTAPWYPFDYWGQGTTVTVSS
VL: DIQMTQSPSSVSASVGDRVTITCKASQIVGSNVAWYQQKPGKAPEPLIYSASYLYSGVPSRFSGSGSGTDFTLTISSLQPEDFATYYCQQYSSHPLTFGQGTKLEIK
- affinity of binding to human HER3 (human HER3 [1]): sub-picomolar affinity
- Kd (human HER3 [2]): 0.0726 nM
- affinity of binding to human HER3 [3]: sub-picomolar affinity
- immunohistochemical staining of malignant and normal human tissue (human HER3 [4]): preferentially stained malignant human tissue sections, with low cross-reactivity to normal tissue

B2: 4-35-B2: anti-HER3 antibody clone, VH SEQ ID NO:127, VL SEQ ID NO:135 (antibody, V domains shown)
VH: EIQLQQSGPELVKPGASVKVSCKASGYSFTDYNMYWVKQSHGKSLEWIGHINPYNGGTTYNQKFKGRATLTVDKSSSTAFMHLNSLTSEDSAVYFCVSLRWGAMDYWGQGTSVTVSS
VL: QIVLTQSPALMSASPGEKVTMTCSASSSVSYMYWYQQKPRSSPKPWIYLTSNLASGVPARFSGSGSGTSYSLTISSMEAEDAATYYCQQWNSNPYTFGGGTKLEIK
- binding / cross-reactivity with mouse HER3 (mouse HER3): substantial cross-reactivity
- binding / cross-reactivity with cynomolgus macaque HER3 (cynomolgus macaque HER3): substantial cross-reactivity
- binding to human HER2 (human HER2): found to bind
- inhibition of tumor growth [5]: ~63%
- binding / cross-reactivity with rat HER3 (rat HER3): substantial cross-reactivity
- binding to human EGFR (HER1) (human EGFR): found to bind

B3: MM-121: anti-HER3 antibody blocking binding of heregulin (NRG) to HER3 (antibody, chains of the INN, looked up)
heavy: EVQLLESGGGLVQPGGSLRLSCAASGFTFSHYVMAWVRQAPGKGLEWVSSISSSGGWTLYADSVKGRFTISRDNSKNTLYLQMNSLRAEDTAVYYCTRGLKMATIFDYWGQGTLVTVSSASTKGPSVFPLAPCSRSTSESTAALGCLVKDYFPEPVTVSWNSGALTSGVHTFPAVLQSSGLYSLSSVVTVPSSNFGTQTYTCNVDHKPSNTKVDKTVERKCCVECPPCPAPPVAGPSVFLFPPKPKDTLMISRTPEVTCVVVDVSHEDPEVQFNWYVDGVEVHNAKTKPREEQFNSTFRVVSVLTVVHQDWLNGKEYKCKVSNKGLPAPIEKTISKTKGQPREPQVYTLPPSREEMTKNQVSLTCLVKGFYPSDIAVEWESNGQPENNYKTTPPMLDSDGSFFLYSKLTVDKSRWQQGNVFSCSVMHEALHNHYTQKSLSLSPG
light: QSALTQPASVSGSPGQSITISCTGTSSDVGSYNVVSWYQQHPGKAPKLIIYEVSQRPSGVSNRFSGSKSGNTASLTISGLQTEDEADYYCCSYAGSSIFVIFGGGTKVTVLGQPKAAPSVTLFPPSSEELQANKATLVCLVSDFYPGAVTVAWKADGSPVKVGVETTKPSKQSNNKYAASSYLSLTPEQWKSHRSYSCRVTHEGSTVEKTVAPAECS
- T½ (terminal half life) [6]: 10.5 days
- Cmax (μg/ml) normalised to per mg/kg dosed ([6]; normalised to per mg/kg dosed): 24 to 25 µg/mL

Reference: patent US20250122303A1, “TREATMENT AND PREVENTION OF CANCER USING HER3 ANTIGEN-BINDING MOLECULES” (Hummingbird Bioscience Pte. Ltd., priority 2021, published 2025)
